Test results published in FireProtDB (doi:10.1021/bi962939w).

Conditions: Mus musculus, 25 °C, CD, whole UniProt chain shown
[1] = pH 4, Urea, Sodium acetate 10 mM

B1: Interleukin-6 wild type, P08505 (protein)
chain: MKFLSARDFHPVAFLGLMLVTTTAFPTSQVRRGDFTEDTTPNRPVYTTSQVGGLITHVLWEIVEMRKELCNGNSDCMNNDDALAENNLKLPEIQRNDGCYQTGYNQEICLLKISSGLLEYHSYLEYMKNNLKDNKKDKARVLQRDTETLIHIFNQEVKDLHKIVLPTPISNALLTDKLESQKEWLRTKTIQFILKSLEEFLKVTLRSTRQT
denaturant m value [1]: 3 kcal/mol/M
denaturant midpoint (higher = more stable) [1]: 3.59 M
unfolding free energy [1]: 10.8 kcal/mol
denaturant m value (pH 7.4, GdnHCl, Tris-HCl 10 mM): 1 kcal/mol/M
denaturant midpoint (higher = more stable) (pH 7.4, GdnHCl, Tris-HCl 10 mM): 1.9 M
unfolding free energy (pH 7.4, GdnHCl, Tris-HCl 10 mM): 1.9 kcal/mol
denaturant m value (pH 7.4, Urea, Tris-HCl 10 mM): 1.1 kcal/mol/M
denaturant midpoint (higher = more stable) (pH 7.4, Urea, Tris-HCl 10 mM): 5.2 M
unfolding free energy (pH 7.4, Urea, Tris-HCl 10 mM): 5.7 kcal/mol
